According to paper PMC4503265 (The Journal of biological chemistry, 2008):

B1: wild-type dopamine transporter (DAT^WT), no tag named (natural protein, human, UniProt Q01959 1-620, looked up)
chain: MSKSKCSVGLMSSVVAPAKEPNAVGPKEVELILVKEQNGVQLTSSTLTNPRQSPVEAQDRETWGKKIDFLLSVIGFAVDLANVWRFPYLCYKNGGGAFLVPYLLFMVIAGMPLFYMELALGQFNREGAAGVWKICPILKGVGFTVILISLYVGFFYNVIIAWALHYLFSSFTTELPWIHCNNSWNSPNCSDAHPGDSSGDSSGLNDTFGTTPAAEYFERGVLHLHQSHGIDDLGPPRWQLTACLVLVIVLLYFSLWKGVKTSGKVVWITATMPYVVLTALLLRGVTLPGAIDGIRAYLSVDFYRLCEASVWIDAATQVCFSLGVGFGVLIAFSSYNKFTNNCYRDAIVTTSINSLTSFSSGFVVFSFLGYMAQKHSVPIGDVAKDGPGLIFIIYPEAIATLPLSSAWAVVFFIMLLTLGIDSAMGGMESVITGLIDEFQLLHRHRELFTLFIVLATFLLSLFCVTNGGIYVFTLLDHFAAGTSILFGVLIEAIGVAWFYGVGQFSDDIQQMTGQRPSLYWRLCWKLVSPCFLLFVVVVSIVTFRPPHYGAYIFPDWANALGWVIATSSMAMVPIYAAYKFCSLPGSFREKLAYAIAPEKDRELVDRGEVRQFTLRHWLKV
B2: His-tagged wild-type dopamine transporter (His-DAT^WT) (natural protein, human, UniProt Q01959 1-620, looked up)
chain: MSKSKCSVGLMSSVVAPAKEPNAVGPKEVELILVKEQNGVQLTSSTLTNPRQSPVEAQDRETWGKKIDFLLSVIGFAVDLANVWRFPYLCYKNGGGAFLVPYLLFMVIAGMPLFYMELALGQFNREGAAGVWKICPILKGVGFTVILISLYVGFFYNVIIAWALHYLFSSFTTELPWIHCNNSWNSPNCSDAHPGDSSGDSSGLNDTFGTTPAAEYFERGVLHLHQSHGIDDLGPPRWQLTACLVLVIVLLYFSLWKGVKTSGKVVWITATMPYVVLTALLLRGVTLPGAIDGIRAYLSVDFYRLCEASVWIDAATQVCFSLGVGFGVLIAFSSYNKFTNNCYRDAIVTTSINSLTSFSSGFVVFSFLGYMAQKHSVPIGDVAKDGPGLIFIIYPEAIATLPLSSAWAVVFFIMLLTLGIDSAMGGMESVITGLIDEFQLLHRHRELFTLFIVLATFLLSLFCVTNGGIYVFTLLDHFAAGTSILFGVLIEAIGVAWFYGVGQFSDDIQQMTGQRPSLYWRLCWKLVSPCFLLFVVVVSIVTFRPPHYGAYIFPDWANALGWVIATSSMAMVPIYAAYKFCSLPGSFREKLAYAIAPEKDRELVDRGEVRQFTLRHWLKV
B3: Myc-tagged wild-type glycine transporter 2 (Myc-GlyT2^WT) (natural protein, mouse, UniProt Q761V0 1-799, looked up)
chain: MDCSAPKEMNKQPANILEAAVPGHRDSPRAPRTSPEQDLPAEAPAATVQPPRVPRSASTGAQTFQSADARACEAQQSGVGFCNLSSPRAQATSAALRDLSEGHSAQANPPSGPAGAGNALHCKIPALRGPEEDANVSVGKGTLEHNNTPAVGWVNMSQSTVVLGTDGIASVLPGSVATTTIPEDEQGDENKARGNWSSKLDFILSMVGYAVGLGNVWRFPYLAFQNGGGAFLIPYLMMLALAGLPIFFLEVSLGQFASQGPVSVWKAIPALQGCGIAMLIISVLIAIYYNVIICYTLFYLFASFVSVLPWGSCNNPWNTPECKDKTKLLLDSCVIGDHPKIQIKNSTFCMTAYPNLTMVNFTSQTNKTFVSGSEEYFKYFVLKISAGIEYPGEIRWPLAFCLFLAWVIVYASLAKGIKSSGKVVYFTATFPYVVLVILLIRGVTLPGAGAGIWYFITPKWEKLTDATVWKDAATQIFFSLSAAWGGLITLSSYNKFHNNCYRDTLIVTCTNSATSIFAGFVIFSVIGFMANERKVNIENVADQGPGIAFVVYPEALTRLPLSPFWAIIFFLMLLTLGLDTMFATIETIVTSISDEFPKYLRTHKPVFTLGCCICFFIMGFPMITQGGIYMFQLVDTYAASYALVIIAIFELVGISYVYGLQRFCEDIEMMIGFKPNIFWKVCWAFVTPTILTFILCFSFYQWEPMTYGSYRYPNWSMVLGWLMLACSVIWIPIMFVIKMYLAPGRFIERLKLVCSPQPDWGPFLAQHRGERYKNMIDPLGTSSLGLKLPVKDLELGTQC
B4: His-GlyT2^T464C expressed in Xenopus laevis oocytes (natural protein, mouse, UniProt Q761V0 1-799, looked up)
chain: MDCSAPKEMNKQPANILEAAVPGHRDSPRAPRTSPEQDLPAEAPAATVQPPRVPRSASTGAQTFQSADARACEAQQSGVGFCNLSSPRAQATSAALRDLSEGHSAQANPPSGPAGAGNALHCKIPALRGPEEDANVSVGKGTLEHNNTPAVGWVNMSQSTVVLGTDGIASVLPGSVATTTIPEDEQGDENKARGNWSSKLDFILSMVGYAVGLGNVWRFPYLAFQNGGGAFLIPYLMMLALAGLPIFFLEVSLGQFASQGPVSVWKAIPALQGCGIAMLIISVLIAIYYNVIICYTLFYLFASFVSVLPWGSCNNPWNTPECKDKTKLLLDSCVIGDHPKIQIKNSTFCMTAYPNLTMVNFTSQTNKTFVSGSEEYFKYFVLKISAGIEYPGEIRWPLAFCLFLAWVIVYASLAKGIKSSGKVVYFTATFPYVVLVILLIRGVTLPGAGAGIWYFITPKWEKLCDATVWKDAATQIFFSLSAAWGGLITLSSYNKFHNNCYRDTLIVTCTNSATSIFAGFVIFSVIGFMANERKVNIENVADQGPGIAFVVYPEALTRLPLSPFWAIIFFLMLLTLGLDTMFATIETIVTSISDEFPKYLRTHKPVFTLGCCICFFIMGFPMITQGGIYMFQLVDTYAASYALVIIAIFELVGISYVYGLQRFCEDIEMMIGFKPNIFWKVCWAFVTPTILTFILCFSFYQWEPMTYGSYRYPNWSMVLGWLMLACSVIWIPIMFVIKMYLAPGRFIERLKLVCSPQPDWGPFLAQHRGERYKNMIDPLGTSSLGLKLPVKDLELGTQC
B5: GlyT2^T464C (no tag named) (natural protein, mouse, UniProt Q761V0 1-799, looked up)
chain: MDCSAPKEMNKQPANILEAAVPGHRDSPRAPRTSPEQDLPAEAPAATVQPPRVPRSASTGAQTFQSADARACEAQQSGVGFCNLSSPRAQATSAALRDLSEGHSAQANPPSGPAGAGNALHCKIPALRGPEEDANVSVGKGTLEHNNTPAVGWVNMSQSTVVLGTDGIASVLPGSVATTTIPEDEQGDENKARGNWSSKLDFILSMVGYAVGLGNVWRFPYLAFQNGGGAFLIPYLMMLALAGLPIFFLEVSLGQFASQGPVSVWKAIPALQGCGIAMLIISVLIAIYYNVIICYTLFYLFASFVSVLPWGSCNNPWNTPECKDKTKLLLDSCVIGDHPKIQIKNSTFCMTAYPNLTMVNFTSQTNKTFVSGSEEYFKYFVLKISAGIEYPGEIRWPLAFCLFLAWVIVYASLAKGIKSSGKVVYFTATFPYVVLVILLIRGVTLPGAGAGIWYFITPKWEKLCDATVWKDAATQIFFSLSAAWGGLITLSSYNKFHNNCYRDTLIVTCTNSATSIFAGFVIFSVIGFMANERKVNIENVADQGPGIAFVVYPEALTRLPLSPFWAIIFFLMLLTLGLDTMFATIETIVTSISDEFPKYLRTHKPVFTLGCCICFFIMGFPMITQGGIYMFQLVDTYAASYALVIIAIFELVGISYVYGLQRFCEDIEMMIGFKPNIFWKVCWAFVTPTILTFILCFSFYQWEPMTYGSYRYPNWSMVLGWLMLACSVIWIPIMFVIKMYLAPGRFIERLKLVCSPQPDWGPFLAQHRGERYKNMIDPLGTSSLGLKLPVKDLELGTQC
B6: His- or Myc-tagged GlyT2^T464C (natural protein, mouse, UniProt Q761V0 1-799, looked up)
chain: MDCSAPKEMNKQPANILEAAVPGHRDSPRAPRTSPEQDLPAEAPAATVQPPRVPRSASTGAQTFQSADARACEAQQSGVGFCNLSSPRAQATSAALRDLSEGHSAQANPPSGPAGAGNALHCKIPALRGPEEDANVSVGKGTLEHNNTPAVGWVNMSQSTVVLGTDGIASVLPGSVATTTIPEDEQGDENKARGNWSSKLDFILSMVGYAVGLGNVWRFPYLAFQNGGGAFLIPYLMMLALAGLPIFFLEVSLGQFASQGPVSVWKAIPALQGCGIAMLIISVLIAIYYNVIICYTLFYLFASFVSVLPWGSCNNPWNTPECKDKTKLLLDSCVIGDHPKIQIKNSTFCMTAYPNLTMVNFTSQTNKTFVSGSEEYFKYFVLKISAGIEYPGEIRWPLAFCLFLAWVIVYASLAKGIKSSGKVVYFTATFPYVVLVILLIRGVTLPGAGAGIWYFITPKWEKLCDATVWKDAATQIFFSLSAAWGGLITLSSYNKFHNNCYRDTLIVTCTNSATSIFAGFVIFSVIGFMANERKVNIENVADQGPGIAFVVYPEALTRLPLSPFWAIIFFLMLLTLGLDTMFATIETIVTSISDEFPKYLRTHKPVFTLGCCICFFIMGFPMITQGGIYMFQLVDTYAASYALVIIAIFELVGISYVYGLQRFCEDIEMMIGFKPNIFWKVCWAFVTPTILTFILCFSFYQWEPMTYGSYRYPNWSMVLGWLMLACSVIWIPIMFVIKMYLAPGRFIERLKLVCSPQPDWGPFLAQHRGERYKNMIDPLGTSSLGLKLPVKDLELGTQC

Tests used:
cross-linking [1] = molecular target: the molecule itself; assay: cross-linking
[2] = molecular target: the molecule itself; assay: SDS-resistant band in nonreducing SDS-PAGE with Western blot
cross-linking [3] = molecular target: the molecule itself; assay: cross-linking; remark: listed apart in the source
pull-down = molecular target: the molecule itself; assay: pull-down

Protein | stoichiometry N (cross-linking [1]) | also measured
B1 | 2 | –
B2 | 2 | –
B3 | – | stoichiometry N [2]: 2
B4 | – | stoichiometry N (cross-linking [3]): 2
B5 | 2 | –
B6 | – | stoichiometry N (pull-down): 2
